The target in the experiment is T1, GST-DSS1 (human, UniProt P60896 1-70).
T1 construct: DSS1, human; expressed from pGEX-KG; NMR numbering runs from M1 to three residues after M67; also called recombinant GST-DSS1 protein; source: E. coli BL21 (DE3), purified (Glutathione 4B-Sepharose, MonoQ); not shown: GST, N-terminal, kept
As to the kind of experiment: pull-down; quantitative: GST-DSS1 4 uM on GST beads, increasing His6-RAD52, 20 mM Tris-acetate pH 7.5, 100 mM KCl, 0.01% NP40, 1 mM DTT, 1 h, 4°C; band intensities normalised to 6 uM His6-RAD52. To be noted: both partners purified.

T1 sequence (P60896 whole entry): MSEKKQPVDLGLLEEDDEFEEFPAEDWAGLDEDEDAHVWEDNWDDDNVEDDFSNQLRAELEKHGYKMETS

B1: His6-RAD52 (natural protein, human, UniProt P43351 1-418, looked up)
chain: MSGTEEAILGGRDSHPAAGGGSVLCFGQCQYTAEEYQAIQKALRQRLGPEYISSRMAGGGQKVCYIEGHRVINLANEMFGYNGWAHSITQQNVDFVDLNNGKFYVGVCAFVRVQLKDGSYHEDVGYGVSEGLKSKALSLEKARKEAVTDGLKRALRSFGNALGNCILDKDYLRSLNKLPRQLPLEVDLTKAKRQDLEPSVEEARYNSCRPNMALGHPQLQQVTSPSRPSHAVIPADQDCSSRSLSSSAVESEATHQRKLRQKQLQQQFRERMEKQQVRVSTPSAEKSEAAPPAPPVTHSTPVTVSEPLLEKDFLAGVTQELIKTLEDNSEKWAVTPDAGDGVVKPSSRADPAQTSDTLALNNQMVTQNRTPHSVCHQKPQAKSGSWDLQTYSADQRTTGNWESHRKSQDMKKRKYDPS
notes: RAD52, human, with His6 tag; not shown: His6, N-terminal, kept
What is called stoichiometry N is a count of units in the complex or per binding partner. In the case of B1, the “stoichiometry N” value turned out to be 1.
